Measured values from patent publication US20250154236A1, “PREVENTION AND TREATMENT OF HEADACHES” (GlaxoSmithKline Intellectual Property (No. 3) Limited, priority 2022, published 2025).
Like-named read-outs stand apart in the source and are kept apart here.

Columns and labels:
[1] = test system: adult rat trigeminal ganglia neurons; test: CGRP release from cultured rat trigeminal ganglia neurons (ELISA); type: cell-based
Method: (§1) TG Cultures were prepared from 8-10-week Sprague-Dawley rats. Following cervical dislocation and cardiac cessation, trigeminal ganglia (TG) were dissociated and collected in ice cold HBSS buffer. TGs were digested in 20 U/ml papain for 20 min followed by another 20-min enzymatic digestion in 2% Collagenase Type 4 and Dispase II in 37° C. water bath. Digested TG ganglia were suspended in Leibovitz's L15 medium containing 10% Fetal Bovine Serum, 1% penicillin/streptomycin, 18.5 mM NaHCO3, 38 mM glucose. Cell suspensions were filtered in a 70 μm then a 40 μm cell strainer and were layered onto Leibovitz's L15 medium containing 4% BSA cushion followed by slow speed centrifuge at 100 g, 10 min. Cell pellets were suspended with DMEM medium containing 10% Fetal Bovine Serum and 1% penicillin/streptomycin. Cells were plated onto 96-well plates and cultured for 24 hours at 37° C., 5% CO2. Recombinant rat artemin protein and vehicle control buffer were added into appropriate wells for 24-hour pre-incubation as needed. For experiments testing the effect of an anti-artemin antibody or RET inhibitor, these agents were added to the TG culture simultaneously with artemin for 24 h for CGRP and SP assay or 48 h for PACAP assay. After 24 h or 48 h incubation, cell culture medium was removed and assay buffer containing TRPV1 agonist capsaicin (CAP) or TRPA1 agonist allyl isothiocyanate (AITC) were added into wells and incubated at 37° C., 10 min to trigger neuropeptide release. At the end of stimulation, the supernatant was collected and CGRP and SP content were measured using ELISA assay kits (Bertin Bioreagent). For PACAP assay, cells were cultured and pre-incubated with artemin for 48 hours prior to agonist stimulation to trigger PACAP release. PACAP content in supernatant was measured using an in-house developed ELISA assay.

[2] = test system: adult rat trigeminal ganglia neurons; test: as above; type: cell-based; conditions: Neuron, 0.5 h
rat TG neurons [3] = test: Substance P release from cultured rat trigeminal ganglia neurons (ELISA); type: cell-based; conditions: artemin pre-incubation
Method: as §1, with “For experiments testing the effect of an anti-artemin antibody or RET inhibitor, these agents were added to the TG culture simultaneously with artemin for 24 h for CGRP and SP assay or 48 h for PACAP assay. After 24 h or 48 h incubation, cell culture medium was removed and assay buffer containing TRPV1 agonist capsaicin (CAP) or TRPA1 agonist allyl isothiocyanate (AITC) were added into wells and incubated at 37° C., 10 min to trigger neuropeptide release.” left out, “For PACAP assay, cells were cultured and pre-incubated with artemin for 48 hours prior to agonist stimulation to trigger PACAP release.” left out

rat TG neurons [4] = test: PACAP release from cultured rat trigeminal ganglia neurons (in-house ELISA); type: cell-based; conditions: artemin treatment for 48 hours
Method: as §1, with “For experiments testing the effect of an anti-artemin antibody or RET inhibitor, these agents were added to the TG culture simultaneously with artemin for 24 h for CGRP and SP assay or 48 h for PACAP assay. After 24 h or 48 h incubation, cell culture medium was removed and assay buffer containing TRPV1 agonist capsaicin (CAP) or TRPA1 agonist allyl isothiocyanate (AITC) were added into wells and incubated at 37° C., 10 min to trigger neuropeptide release.” left out, “For PACAP assay, cells were cultured and pre-incubated with artemin for 48 hours prior to agonist stimulation to trigger PACAP release.” left out

[5] = test system: rat (preclinical migraine model); test: Artemin dural infusion study, periorbital von Frey sensitivity; type: in vivo; conditions: local dural infusion daily for five consecutive days, 0.018, 0.18 and 1.8 μg; versus vehicle, first two weeks
Method: Briefly, three different doses of rat artemin protein, inflammatory soup cocktail and vehicle buffer were administered daily via a stainless-steel cannula (22GA, Plastics One) embedded onto dura for 5 consecutive days to produce persistent facial hypersensitivity. Sensory testing occurred during the day using von Frey filaments with reproducible calibrated buckling forces varying from 0.4-10 g utilizing the simplified Chaplan up-and-down method. Allodynia was tested by perpendicularly touching the periorbital region causing slight buckling of the filament for approximately 5 seconds. The periorbital withdrawal threshold (g) was calculated based on the response pattern and the force of the final filament. The periorbital threshold data was recorded on the side of artemin, Inflammatory Soup Cocktail, or vehicle infusion only.

## COc1cc(CNC(=O)CCCC/C=C/C(C)C)ccc1O [CAP, capsaicin, reference compound]
[1]; Neuron, CAP+ARTN (24 h), 10 ng/ml rat artemin, read-out: EC50 of CAP for CGRP release
  EC50: 20.2 nM
[1]; Rattus norvegicus, Neuron, CAP alone, no artemin, read-out: EC50 of CAP for CGRP release
  EC50: 21.6 nM
[2]; CAP+ARTN (30 min), 10 ng/ml rat artemin, read-out: EC50 of CAP for CGRP release
  EC50: 0.0179 µM

## C=CCN=C=S [AITC, allyl isothiocyanate, reference compound]
[1]; Rattus norvegicus, Neuron, 24 h, read-out: EC50 of AITC for CGRP release
  EC50: 6940 nM
[1]; Rattus norvegicus, Neuron, read-out: EC50 of AITC for CGRP release
  EC50: 17800 nM
[2]; Rattus norvegicus, read-out: EC50 of AITC for CGRP release
  EC50: 6.6 µM

B1: artemin: Recombinant rat artemin protein, member of GDNF ligand family (protein)
chain: AGTRSSRARATDARGCRLRSQLVPVSALGLGHSSDELIRFRFCSGSCRRARSPHDLSLASLLDAGALRSPPGSRPISQPCCRPTRYEAVSFMDVNSTWRTVDHLSATACGCLG
[1]; AITC stimulation, 24 hours of treatment
  EC50 for artemin-potentiation of CGRP release: 0.092 ng/mL
[1]; AITC stimulation, 24 hours of treatment, read-out: EC50 for artemin-potentiation of CGRP release
  EC50: 0.0038 nM
[1]; CAP and AITC fixed at ~EC50, artemin range 0.001 to 100 ng/ml
  artemin concentration reaching maximal effect on stimulated CGRP release: 1 ng/mL
[1]; CAP stimulation, 24 hours of treatment
  EC50 for artemin-potentiation of CGRP release: 0.028 ng/mL
Rat TG neurons [3]
  effect on CAP- and AITC-stimulated Substance P (SP) release: dose-dependently increased
Rat TG neurons [4]
  effect on CAP- and AITC-stimulated PACAP release: potentiated
[5]
  periorbital sensitivity to mechanical stimulation: significantly increased
